Source: article PMC9723961 (Journal for Immunotherapy of Cancer, 2022)
Values belong to the binder of their own block, whether it stands above or below them.

Assays:
Recombinant CD73-His [1] = molecular target: T1, Recombinant CD73-His (human, UniProt P21589); test: BLI
Recombinant CD73-His [2] = molecular target: T1, Recombinant CD73-His; test: cryo-EM structure
cryo-EM structure = molecular target: the molecule itself; test: cryo-EM structure

- Kd (Recombinant CD73-His [1]): 0.2 nM
- stoichiometry N (Recombinant CD73-His [2]): 2 antibodies per CD73 homodimer
B1: Mupadolimab (antibody, V domains shown)
VH: QVQLVQSGAEVEKPGASVKVSCKASGYTFTSYWITWVRQAPGQGLEWMGDIYPGSGNTNYNEKFKTRVTITADKSTSTAYMELSSLRSEDTAVYYCAKEGGLTTEDYALDYWGQGTLVTVSS
VL: EIVLTQSPATLSLSPGERATLSCRASKNVSTSGYSYMHWYQQKPGQAPRLLIYLASNLESGIPPRFSGSGYGTDFTLTINNIESEDAAYYFCQHSRELPFTFGQGTKVEIK

B2: Recombinant CD73-His (enzyme, human, UniProt P21589 27-549, looked up)
chain: WELTILHTNDVHSRLEQTSEDSSKCVNASRCMGGVARLFTKVQQIRRAEPNVLLLDAGDQYQGTIWFTVYKGAEVAHFMNALRYDAMALGNHEFDNGVEGLIEPLLKEAKFPILSANIKAKGPLASQISGLYLPYKVLPVGDEVVGIVGYTSKETPFLSNPGTNLVFEDEITALQPEVDKLKTLNVNKIIALGHSGFEMDKLIAQKVRGVDVVVGGHSNTFLYTGNPPSKEVPAGKYPFIVTSDDGRKVPVVQAYAFGKYLGYLKIEFDERGNVISSHGNPILLNSSIPEDPSIKADINKWRIKLDNYSTQELGKTIVYLDGSSQSCRFRECNMGNLICDAMINNNLRHTDEMFWNHVSMCILNGGGIRSPIDERNNGTITWENLAAVLPFGGTFDLVQLKGSTLKKAFEHSVHRYGQSTGEFLQVGGIHVVYDLSRKPGDRVVKLDVLCTKCRVPSYDPLKMDEVYKVILPNFLANGGDGFQMIKDELLRHDSGDQDINVVSTYISKMKVIYPAVEGRIKFS
- binding result (cryo-EM structure): binds
